What was measured:
[1] = target: T1, human TREM2 (triggering receptor expressed on myeloid cells 2) (human) (UniProt Q9NZC2); experiment: 2nd screen, 10 nM Ab
T1 sequence (looked up): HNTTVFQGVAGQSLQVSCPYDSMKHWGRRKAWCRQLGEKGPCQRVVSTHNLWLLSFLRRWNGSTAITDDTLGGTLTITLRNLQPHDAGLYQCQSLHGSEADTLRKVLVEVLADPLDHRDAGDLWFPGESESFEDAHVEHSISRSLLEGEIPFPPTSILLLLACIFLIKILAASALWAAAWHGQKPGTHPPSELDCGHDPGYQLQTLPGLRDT

[2] = target: T1, human TREM2 (triggering receptor expressed on myeloid cells 2) (human); experiment: 1st screen, 10 nM Ab
[3] = target: T1, human TREM2 (triggering receptor expressed on myeloid cells 2) (human); experiment: 2nd screen, 2 nM Ab

B1: 6E7 antibody affinity modulation variant V53 (antibody, V domains shown)
VH: EVQLVQSGAEVKKPGESLKISCKGSGYSFTSYWIAWVRQMPGKGLEWMGIIYPGDSDTRYSPHFQGQVTISADKSISTAYLQWSSLKASDTAMYFCARQRTFYYDSSDYFDYWGQGTLVTVSS
VL: DIQMTQSPSSVSASVGDRVTITCRASQGISSWLAWYQQKPGKAPKLLIYAASSLQNGVPSRFSGSGSGTDFTLTISSLQPEDFATYFCQQADSFPRTFGQGTKLEIK
A Binding Signal (fold over 6E7 parental antibody) [1] of 1.17 fold, a Binding Signal (fold over 6E7 parental antibody) [2] of 1.25 fold and a Binding Signal (fold over 6E7 parental antibody) [3] of 0.66 fold were found for B1 in this work.

B2: 6E7 antibody affinity modulation variant V60 (antibody, V domains shown)
VH: EVQLVQSGAEVKKPGESLKISCKGSGYHFTSYWIAWVRQMPGKGLEWMGIIYPGDSDVRYSPSFQGQVTISADKSISTAYLQWSSLKASDTAMYFCARQRTFYYDSSDYSDYWGQGTLVTVSS
VL: DIQMTQSPSSVSASVGDRVTITCRASQGISSWLAWYQQKPGKAPKLLIYAASSLQRGVPSRFSGSGSGTDFTLTISSLQPEDFATYFCGQADSFPRTFGQGTKLEIK
A Binding Signal (fold over 6E7 parental antibody) [1] of 3.63 fold, a Binding Signal (fold over 6E7 parental antibody) [2] of 3.26 fold and a Binding Signal (fold over 6E7 parental antibody) [3] of 3.35 fold were found for B2 in this work.

B3: 6E7 antibody affinity modulation variant V61 (antibody, V domains shown)
VH: EVQLVQSGAEVKKPGESLKISCKGSGYSFSSYWIAWVRQMPGKGLEWMGIIYPGDSDTRYNPSFQGQVTISADKSISTAYLQWSSLKASDTAMYFCARGRTFYYDSSDYFDYWGQGTLVTVSS
VL: DIQMTQSPSSVSASVGDRVTITCRASQGISSWLAWYQQKPGKAPKLLIYAASSLVNGVPSRFSGSGSGTDFTLTISSLQPEDFATYFCQQADSLPRTFGQGTKLEIK
A Binding Signal (fold over 6E7 parental antibody) [1] of 5.22 fold, a Binding Signal (fold over 6E7 parental antibody) [2] of 5.08 fold and a Binding Signal (fold over 6E7 parental antibody) [3] of 3.63 fold were found for B3 in this work.

B4: 6E7 antibody affinity modulation variant V1 (antibody, V domains shown)
VH: EVQLVQSGAEVKKPGESLKISCKGSGYSFTSSWIAWVRQMPGKGLEWMGIIYPGDSDTRYSPSFQGQVTISADKSISTAYLQWSSLKASDTAMYFCARSRTFYYDSSDYFDYWGQGTLVTVSS
VL: DIQMTQSPSSVSASVGDRVTITCRASQGISSWLAWYQQKPGKAPKLLIYAASSLTNGVPSRFSGSGSGTDFTLTISSLQPEDFATYFCQQADSYPRTFGQGTKLEIK
A Binding Signal (fold over 6E7 parental antibody) [1] of 1.92 fold, a Binding Signal (fold over 6E7 parental antibody) [2] of 1.68 fold and a Binding Signal (fold over 6E7 parental antibody) [3] of 1.29 fold were found for B4 in this work.

B5: 6E7 antibody affinity modulation variant V62 (antibody, V domains shown)
VH: EVQLVQSGAEVKKPGESLKISCKGSGYSFGSYWIAWVRQMPGKGLEWMGIIYPGDSDTRYAPSFQGQVTISADKSISTAYLQWSSLKASDTAMYFCARQRTFYYDSSGYFDYWGQGTLVTVSS
VL: DIQMTQSPSSVSASVGDRVTITCRASQGISSWLAWYQQKPGKAPKLLIYAASSLQRGVPSRFSGSGSGTDFTLTISSLQPEDFATYFCGQADSFPRTFGQGTKLEIK
A Binding Signal (fold over 6E7 parental antibody) [1] of 2.89 fold, a Binding Signal (fold over 6E7 parental antibody) [2] of 2.49 fold and a Binding Signal (fold over 6E7 parental antibody) [3] of 1.87 fold were found for B5 in this work.

B6: 6E7 antibody affinity modulation variant V63 (antibody, V domains shown)
VH: EVQLVQSGAEVKKPGESLKISCKGSGYSFRSYWIAWVRQMPGKGLEWMGIIYPGDSDTRYSPSFQGQVTISADKSISTAYLQWSSLKASDTAMYFCARSRTFYYDSSDYFDYWGQGTLVTVSS
VL: DIQMTQSPSSVSASVGDRVTITCRASQGISSWLAWYQQKPGKAPKLLIYAASSLQRGVPSRFSGSGSGTDFTLTISSLQPEDFATYFCQQADRFPRTFGQGTKLEIK
A Binding Signal (fold over 6E7 parental antibody) [1] of 3.71 fold, a Binding Signal (fold over 6E7 parental antibody) [2] of 3.76 fold and a Binding Signal (fold over 6E7 parental antibody) [3] of 4.91 fold were found for B6 in this work.

B7: 6E7 antibody affinity modulation variant V64 (antibody, V domains shown)
VH: EVQLVQSGAEVKKPGESLKISCKGSGYSFQSYWIAWVRQMPGKGLEWMGIIYPGDSDTRYSPSFQGQVTISADKSISTAYLQWSSLKASDTAMYFCARGRTFYYDSSDYFDYWGQGTLVTVSS
VL: DIQMTQSPSSVSASVGDRVTITCRASQGISSWLAWYQQKPGKAPKLLIYAASSLANGVPSRFSGSGSGTDFTLTISSLQPEDFATYFCQQADSYPRTFGQGTKLEIK
A Binding Signal (fold over 6E7 parental antibody) [1] of 5.48 fold, a Binding Signal (fold over 6E7 parental antibody) [2] of 5.41 fold and a Binding Signal (fold over 6E7 parental antibody) [3] of 4.88 fold were found for B7 in this work.

B8: 6E7 antibody affinity modulation variant V65 (antibody, V domains shown)
VH: EVQLVQSGAEVKKPGESLKISCKGSGYSFTSYWIAWVRQMPGKGLEWMGIIYPGDSDTRYSPSFQGQVTISADKSISTAYLQWSSLKASDTAMYFCARSRTFYYDSSDYFDYWGQGTLVTVSS
VL: DIQMTQSPSSVSASVGDRVTITCRASQGISSWLAWYQQKPGKAPKLLIYAASSLQNGVPSRFSGSGSGTDFTLTISSLQPEDFATYFCQQADSFPRTFGQGTKLEIK
A Binding Signal (fold over 6E7 parental antibody) [1] of 2.75 fold, a Binding Signal (fold over 6E7 parental antibody) [2] of 2.05 fold and a Binding Signal (fold over 6E7 parental antibody) [3] of 1.29 fold were found for B8 in this work.

B9: 6E7 antibody affinity modulation variant V73 (antibody, V domains shown)
VH: EVQLVQSGAEVKKPGESLKISCKGSGYSFGSYWIAWVRQMPGKGLEWMGIIYPGDSDTRYSPGFQGQVTISADKSISTAYLQWSSLKASDTAMYFCARGRTFYYDSSDYFDYWGQGTLVTVSS
VL: DIQMTQSPSSVSASVGDRVTITCRASQGISSWLAWYQQKPGKAPKLLIYAASSRQNGVPSRFSGSGSGTDFTLTISSLQPEDFATYFCQQADSYPRTFGQGTKLEIK
A Binding Signal (fold over 6E7 parental antibody) [1] of 5.44 fold, a Binding Signal (fold over 6E7 parental antibody) [2] of 5.12 fold and a Binding Signal (fold over 6E7 parental antibody) [3] of 4.17 fold were found for B9 in this work.

B10: 6E7 antibody affinity modulation variant V2 (antibody, V domains shown)
VH: EVQLVQSGAEVKKPGESLKISCKGSGSSFTSYWIAWVRQMPGKGLEWMGIIYPGDGDTRYSPSFQGQVTISADKSISTAYLQWSSLKASDTAMYFCARSRTFYYDSSDYFDYWGQGTLVTVSS
VL: DIQMTQSPSSVSASVGDRVTITCRASQGISSWLAWYQQKPGKAPKLLIYAASSRQNGVPSRFSGSGSGTDFTLTISSLQPEDFATYFCQQADRFPRTFGQGTKLEIK
A Binding Signal (fold over 6E7 parental antibody) [1] of 2.9 fold, a Binding Signal (fold over 6E7 parental antibody) [2] of 2.55 fold and a Binding Signal (fold over 6E7 parental antibody) [3] of 2.23 fold were found for B10 in this work.

B11: 6E7 antibody affinity modulation variant V74 (antibody, V domains shown)
VH: EVQLVQSGAEVKKPGESLKISCKGSGYSFASYWIAWVRQMPGKGLEWMGIIYPGDSDVRYSPSFQGQVTISADKSISTAYLQWSSLKASDTAMYFCARGRTFYYDSSDYFDYWGQGTLVTVSS
VL: DIQMTQSPSSVSASVGDRVTITCRASQGISSWLAWYQQKPGKAPKLLIYAASSLQLGVPSRFSGSGSGTDFTLTISSLQPEDFATYFCQQADSFPRTFGQGTKLEIK
A Binding Signal (fold over 6E7 parental antibody) [1] of 4.01 fold, a Binding Signal (fold over 6E7 parental antibody) [2] of 3.94 fold and a Binding Signal (fold over 6E7 parental antibody) [3] of 2.54 fold were found for B11 in this work.

B12: 6E7 antibody affinity modulation variant V75 (antibody, V domains shown)
VH: EVQLVQSGAEVKKPGESLKISCKGSGYSFTSYWIAWVRQMPGKGLEWMGIIYPGDSDTRYSPSFQGQVTISADKSISTAYLQWSSLKASDTAMYFCARGRTFYYDSSDYFDYWGQGTLVTVSS
VL: DIQMTQSPSSVSASVGDRVTITCRASQGISSWLAWYQQKPGKAPKLLIYAASSLQAGVPSRFSGSGSGTDFTLTISSLQPEDFATYFCQQADSYPRTFGQGTKLEIK
A Binding Signal (fold over 6E7 parental antibody) [1] of 4.52 fold, a Binding Signal (fold over 6E7 parental antibody) [2] of 4.64 fold and a Binding Signal (fold over 6E7 parental antibody) [3] of 3.74 fold were found for B12 in this work.

B13: 6E7 antibody affinity modulation variant V76 (antibody, V domains shown)
VH: EVQLVQSGAEVKKPGESLKISCKGSGYSFGSYWIAWVRQMPGKGLEWMGIIYPGDSDTRYSPEFQGQVTISADKSISTAYLQWSSLKASDTAMYFCARQRTFYYDSSDYSDYWGQGTLVTVSS
VL: DIQMTQSPSSVSASVGDRVTITCRASQGISSWLAWYQQKPGKAPKLLIYAASSLQKGVPSRFSGSGSGRDFTLTISSLQPEDFATYFCQQADSFPRTFGQGTKLEIK
A Binding Signal (fold over 6E7 parental antibody) [1] of 4.93 fold, a Binding Signal (fold over 6E7 parental antibody) [2] of 4.57 fold and a Binding Signal (fold over 6E7 parental antibody) [3] of 4.34 fold were found for B13 in this work.

B14: 6E7 antibody affinity modulation variant V77 (antibody, V domains shown)
VH: EVQLVQSGAEVKKPGESLKISCKGSGYSFTSYWIAWVRQMPGKGLEWMGIIYPGDSDTRYSPSFQGQVTISADKSISTAYLQWSSLKASDTAMYFCARQRTFYYDSSDYFDYWGQGTLVTVSS
VL: DIQMTQSPSSVSASVGDRVTITCRASQGISSWLAWYQQKPGKAPKLLIYAASSRQNGVPSRFSGSGSGTDFTLTISSLQPEDFATYFCQQADSFPRTFGQGTKLEIK
A Binding Signal (fold over 6E7 parental antibody) [1] of 1.38 fold, a Binding Signal (fold over 6E7 parental antibody) [2] of 1.43 fold and a Binding Signal (fold over 6E7 parental antibody) [3] of 0.83 fold were found for B14 in this work.

B15: 6E7 antibody affinity modulation variant V84 (antibody, V domains shown)
VH: EVQLVQSGAEVKKPGESLKISCKGSGYGFTSYWIAWVRQMPGKGLEWMGIIYPGDSDTRYSPSFQGQVTISADKSISTAYLQWSSLKASDTAMYFCARQRTFYYDSSDYSDYWGQGTLVTVSS
VL: DIQMTQSPSSVSASVGDRVTITCRASQGISSWLAWYQQKPGKAPKLLIYGASSLQNGVPSRFSGSGSGTDFTLTISSLQPEDFATYFCQQADSFPRTFGQGTKLEIK
A Binding Signal (fold over 6E7 parental antibody) [1] of 1.62 fold, a Binding Signal (fold over 6E7 parental antibody) [2] of 1.44 fold and a Binding Signal (fold over 6E7 parental antibody) [3] of 1.45 fold were found for B15 in this work.

B16: 6E7 antibody affinity modulation variant V85 (antibody, V domains shown)
VH: EVQLVQSGAEVKKPGESLKISCKGSGYSFRSYWIAWVRQMPGKGLEWMGTIYPGDSDTRYSPSFQGQVTISADKSISTAYLQWSSLKASDTAMYFCARSRTFYYDSSDYFDYWGQGTLVTVSS
VL: DIQMTQSPSSVSASVGDRVTITCRASQGISSWLAWYQQKPGKAPKLLIYAASSRQNGVPSRFSGSGSGTDFTLTISSLQPEDFATYFCQQADSFPRTFGQGTKLEIK
A Binding Signal (fold over 6E7 parental antibody) [1] of 5.37 fold, a Binding Signal (fold over 6E7 parental antibody) [2] of 5.41 fold and a Binding Signal (fold over 6E7 parental antibody) [3] of 5.41 fold were found for B16 in this work.

B17: 6E7 antibody affinity modulation variant V3 (antibody, V domains shown)
VH: EVQLVQSGAEVKKPGESLKISCKGSGYSFASYWIAWVRQMPGKGLEWMGIIYPGDSDTRYSPSFQDQVTISADKSISTAYLQWSSLKASDTAMYFCARGRTFYYDSSDYFDYWGQGTLVTVSS
VL: DIQMTQSPSSVSASVGDRVTITCRASQGISSWLAWYQQKPGKAPKLLIYAASSRQNGVPSRFSGSGSGTDFTLTISSLQPEDFATYFCQQADRFPRTFGQGTKLEIK
A Binding Signal (fold over 6E7 parental antibody) [1] of 2.24 fold, a Binding Signal (fold over 6E7 parental antibody) [2] of 1.97 fold and a Binding Signal (fold over 6E7 parental antibody) [3] of 1.95 fold were found for B17 in this work.
